Binding result and Kd data for 1 molecule are collected here from patent US20160280792A1 (Kyowa Kirin, published 2016).

Assay [1] addresses T1, IL-3Rα/GM-CSFRα chimeric protein, A domain of IL-3Rα replaced by that of GM-CSFRα, on HEK293T cells (human, UniProt P15509 23-114).
T1 construct: domain: A domain; The KpnI site (GGTACC) at the junction encodes an extra Gly-Thr; also called A domain substitution
T1 sequence: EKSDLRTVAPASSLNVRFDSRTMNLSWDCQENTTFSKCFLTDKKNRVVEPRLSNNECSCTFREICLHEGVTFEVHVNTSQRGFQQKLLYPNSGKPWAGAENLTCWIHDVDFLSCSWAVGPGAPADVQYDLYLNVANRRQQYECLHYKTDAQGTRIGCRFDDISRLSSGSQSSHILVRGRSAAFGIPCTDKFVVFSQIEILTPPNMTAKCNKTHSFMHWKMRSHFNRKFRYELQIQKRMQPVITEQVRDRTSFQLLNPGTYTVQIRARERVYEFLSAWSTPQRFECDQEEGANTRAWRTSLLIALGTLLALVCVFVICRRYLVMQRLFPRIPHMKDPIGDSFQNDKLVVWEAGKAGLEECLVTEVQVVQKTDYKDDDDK
The experiment in a line: flow cytometry, labelled antibody at 1 µg/ml, HEK293T cells expressing the construct. The procedure:
(§1) HEK293T cell (ATCC CRL 1268) was used for the preparation of the IL-3Rα/GM-CSFRα chimeric protein expression cell. Using 293Fectin (Invitrogen), the plasmid DNA obtained in the above was introduced as an expression vector into the HEK293T. The HEK293T to which the expression vector was introduced was cultured using a shaker under conditions of 5% CO₂ and 37° C. after 2 days of the introduction, the […] was used for in the flow cytometry analysis.
(§2) From 100,000 to 1,000,000 cells of the chimeric protein expression cell were allowed to react for 30 minutes on ice with at a concentration of 1 μg/ml with an AlexaFlour488-labeled human antibody or a commercially available FITC-labeled anti-IL-3Rα mouse antibody (7G3 or 9F5: both from BD Biosciences, 6H6: Acris Antibodies, AC145: Milteny Biotech, 107D2.08: Dendritics). A staining medium (Dulbecco's PBS supplemented with 2% fetal bovine serum, 2 mM EDTA and 0.05% NaN₃) was used for the dilution of antibodies and cells. Next, the cells reacted with antibodies were washed three times with the staining medium and whether the labeled antibody bound to the cell was confirmed by flow cytometry.

Assay [2] deals with T2, IL-3Rα/GM-CSFRα chimeric protein, B domain of IL-3Rα replaced by that of GM-CSFRα, on HEK293T cells (human, UniProt P15509 115-213).
T2 construct: domain: B domain; The KpnI sites (GGTACC) at both junctions each encode an extra Gly-Thr; also called B domain substitution
T2 sequence: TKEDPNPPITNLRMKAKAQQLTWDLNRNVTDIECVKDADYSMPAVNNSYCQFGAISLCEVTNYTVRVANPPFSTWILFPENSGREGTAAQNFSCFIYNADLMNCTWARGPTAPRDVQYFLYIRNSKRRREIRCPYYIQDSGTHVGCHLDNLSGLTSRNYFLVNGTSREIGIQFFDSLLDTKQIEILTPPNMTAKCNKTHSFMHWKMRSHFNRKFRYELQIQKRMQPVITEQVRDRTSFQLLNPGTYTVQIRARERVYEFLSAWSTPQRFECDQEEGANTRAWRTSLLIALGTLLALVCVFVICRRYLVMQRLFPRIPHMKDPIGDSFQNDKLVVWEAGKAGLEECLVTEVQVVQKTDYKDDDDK
The assay is described as above. The method, then: as §1, §2

Assay [3] concerns the target T3, soluble form of human IL-3Rα protein (extracellular region with C-terminal FLAG tag) (human, UniProt P26951 19-305).
T3 construct: Made in CHOras1 cells, purified on anti-FLAG gel; also called soluble form of IL-3Rα protein; soluble form of human IL-3Rα extracellular region
T3 sequence: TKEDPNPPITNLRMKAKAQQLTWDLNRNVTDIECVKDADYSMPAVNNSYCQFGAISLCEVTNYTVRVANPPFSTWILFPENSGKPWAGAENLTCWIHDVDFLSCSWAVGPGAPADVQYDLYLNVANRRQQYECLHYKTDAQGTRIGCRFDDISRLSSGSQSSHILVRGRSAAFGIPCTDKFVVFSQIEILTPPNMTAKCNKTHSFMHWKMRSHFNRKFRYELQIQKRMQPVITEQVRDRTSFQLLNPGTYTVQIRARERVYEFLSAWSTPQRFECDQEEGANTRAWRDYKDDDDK
The experiment in a line: SPR (Biacore 2000): antibody captured on anti-human antibody CM5 chip, soluble IL-3Rα as analyte, 1:1 Langmuir fit. The method, then: Specifically, CM5 (research grade) was used for a sensor tip (each GE). Firstly, the CM5 tip was activated by applying an equivalent mixture of 400 mM EDC (N-ethyl-N′-(3-dimethylaminopropyl)carbodiimidehydrochloride) and 100 mM NHS (N-hydroxysuccinimide) to the CM5 tip. Next, an antibody to the human antibody attached to the Human Antibody Capture Kit (GE) (hereinafter, referred to as anti-human antibody antibody) was diluted with the solution attached to the kit and applied thereto, thereby immobilizing the required amount of the anti-human antibody antibody to the CM5 tip. Regarding the mouse antibody to be used as a control, an antibody to the mouse antibody attached to the Mouse Antibody Capture Kit (GE) (hereinafter, referred to as anti-mouse antibody antibody) was diluted with the solution attached to the kit and applied thereto, thereby immobilizing a necessary amount thereof to the CM5 tip. Next, the surface of the activated tip was blocked and inactivated by applying 1 M of ethanolamine dihydrochloride thereto. By the above steps until this, preparation of a CM5 sensor tip which can measure the dissociation constant KD was completed.
Next, each of anti-IL-3Rα antibodies, was diluted to give a concentration of 5 μg/ml with HBS-FP buffer (GE) one kind per one flow cell and applied, thereby allowing it to bind to the immobilized anti-human antibody antibody or anti-mouse antibody antibody. Next, the soluble form of IL-3Rα protein was applied thereto. In order to dissociate the bound anti-IL-3Rα antibody and soluble form of IL-3Rα protein, 3 M MgCl₂ attached to Human Antibody Capture Kit or pH 1.7 of Glycine-HCl attached to Mouse Antibody Capture Kit was applied in the amount attached to the kit. The steps until this were regarded as one step. By repeating the same steps using two or more concentrations of the soluble form of IL-3Rα protein, data for calculating association and dissociation constants (sensorgram) were obtained.
In the analysis, Biaevaluation software (GE) was used and Biaevaluation Software Handbook was referred. Specifically, by carrying out simultaneous analysis of kinetics analysis, employing basically the 1:1 Langmuir binding reaction model and fitting, association rate constant (Ka) and dissociation rate constant (Kd) were calculated, and the value of dissociation constant KD was calculated by the calculation of Kd/Ka.

B1: Old19 anti-human IL-3Rα human antibody (antibody, human IgG1, V domains shown)
VH: QVQLVQSGAEVKKPGSSVKVSCKASGGTFSSYAISWVRQAPGQGLEWVGGIIPIFGTANYAQKFQGRVTITADESTSTAYMELSSLRSEDTAVYYCARGHKYGPYYFDYWGQGTLVTVSS
VL: DIQMTQSPSSLSASVGDRVTITCRASQGISSWLAWYQQKPEKAPKSLIYAASSLQSGVPSRFSGSGSGTDFTLTISSLQPEDFATYYCQQYNSYPRTFGQGTKVEIK
notes: Human antibody; recombinant form in N5KG1-Val Lark vector (human IgG1, kappa)
On to B1, for which the binding result in assay [1] and in assay [2] was “no binding (tested: 1 µg/ml)” each time. The molecule further came in with a Kd in assay [3] of 3.24 nM.
